Data from the nanobody polyreactivity screen of Harvey et al. (2022).

Experiment: yeast display, Sf9 membrane polyspecificity reagent, FACS + sequencing; frameworks hold sequencing errors
Summary of the method: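 Sorting gates, low and high (top ~1%), were placed on anti-HA fluorescence to track expression and on streptavidin fluorescence to track reagent binding. A clone's polyreactivity label is taken from the gate it came out of. The reagent was 10% biotinylated, detergent-solubilized Sf9 membrane, applied for 1 hour at 4 °C to galactose-induced yeast display cells.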

Row | Sequence | polyreactivity (PSR sort gate)
1 | QVQLVESGGGLVQAGGSLRLSCAASGSIFSYYAMGWYRQAPGKERELVAAISSGVSSTYYADSVKGRFTISRDNAKNTVYLQMNSLKPEYTAVYYCNADRPYRLNEYWGQGTQVTVSS | high polyreactivity
2 | QVQLVESGGGLVQAGGSLRLSCAASGSIFRGNAMGWYRQAPGKERELVAAISWSGASTYYADSVKGRFTISRDNAKNTVYLQMNSLKPEDTAVYYCAAVQWTGYPFDYWGQGTQVTVSS | high polyreactivity
3 | QVQLVESGGGLVQAGGSLRLSCAASGNTVNFYAMGWYREAPGKERELVASITSGGGTNYADSVKGRFTISRDNAKNTVYLQMNSLKPEETAVYFCAAQFYYHFRFHCDWGQGTQVTVSS | low polyreactivity
4 | QVQLVESGGGLVQAGGSLRLSCAASGFTFYIYAMGWDRQAPGKERELVAAIRASGGSTYYADSVKGRFTISRDSAKNTVYFLMNSLNPDDTAVYYCAADYKVYASWYYAYTFYYWGQGTQVTVSS | low polyreactivity
5 | QVQLVESGGGLVQAGGSLRLSCAASGLIFVVYTMGWYRQAPGKERELVAAITGRGGSTYADSVKGRFTISRDNAKNTVYLQMNSLKPEDNAVYYCNRADYYGYRFRVYDRLDYWGQGTQVTVSS | low polyreactivity
6 | QVQLVESGGGLVQAGGSLRLSCAASGGTFSYYAMGWYRQARGKERELDAAISGNGDTTYYADSVKGRFTISRDNAKNTVYLQMNSLKPEDTAVYYCAADGWGFIVGIDYYPYGEGDYWGQGTQVTVSS | low polyreactivity
7 | QVQLVESGGGLVQAGGSLRLSCAASGSIFYTYAMGWYRQAPGKERELVAAISSGGSTNYADSVKGRFTISRDNPKNTVYLQMNSLKPEDTAVYYCAAEYTRSFYIYYRFGYWGQGTQVTVSS | high polyreactivity
8 | QVQLVESGGGLVQAGGRLRLSCAASGSIFSHNVMGWYRQAPGKEGELVAAITYRGGSTYYADSVKGRFTISRDNAKNTVYLQMNSLKPEDTAVYYCSALNEVSTYHGFDYWGQGTQVTVSS | low polyreactivity
9 | QVQLVESGGRLVQAGGSLSLSCAASGFIFWSYAMGWYRPAPGKERELVAAISARGGSTYYADSVKGRFTISRDNAKNTVYLQMTSLKPEDTAVYYCATYPTYEYDYWGQGTQVTLSS | high polyreactivity
10 | QVQLVESGGGLVQAGGSLRLSCAASGSTFRIYAMGWYRQAPGREREFVAAITWTGGSTYYADSVKGRFTISRDNAKNTVYLQMNSLKPEDTADYYCAARQLSDYYWGQGTQVTVSS | high polyreactivity
11 | QVQLVESGGGLVQAGGRLRISCAASGSTFQPYAMGWYRQAPGKERELVAAISWRGGSTYYADSVKGRFTISRDNAKNTVYLQMNSLKPEDTAVSYCAAYFYFRRGTDYDYWGQGTQVTVSS | high polyreactivity
12 | QVQLVESGGGLLQAGGSLRLSCAASGRIFGDYGMGWYRQAPGKERELVAAITDRGGTTYYADSVKGRFTISRDNAKKTVYLQMNSMKPEDNAVYYCNARQSDIFDYDYWGQGTQVTVSS | low polyreactivity
13 | QVQLVESGGGLVQAGGSLRLSCAASGRIFTRYAIGWYRQAPGKERELVAAITYNGGSTYYADSVKGRFTISRDNAKNTVYLQMNSLKPEDTAVYDCNAVYLSWFGLFAGFDYWGQGTQVTVSS | high polyreactivity
14 | QVQLVESGGGLVQAGGSLRLSCAASGRTCDRNTMGWYRQAPGKERELVAAISGSSARTYYADSVKGRFTISRDNAKNTVYLQMNSLKPEDTAVYYCNAEYGARAQHYEGDSWGQGTQVTVSS | high polyreactivity
15 | QVQLVESGGGLVQAGGSLRLSCAASGRIFYWYAMAWYRQAPGKERELVAAITSGGSTYYADSVKGRFTISRDNAKNTVYLQMNSLKPEDTAVYYCAADLYYWGDYDYWGQGTQVTVSS | low polyreactivity
16 | QVQLVESGGGLVQAGGSLRLSCAASGFTFTFYALGWYRQAPGKERELVAAIRTSDGRTYYADSVKGRFTISRDNAKNTVYLQMNSLKPEDTAVYYCNARRYVGYDYWGQGSQVTVSS | high polyreactivity

Row | Sequence | polyreactivity (PSR sort gate)
17 | QVQLVESGGGLVQAGGSLRLSCAPSGRIFRTNTMGWYRQAPGKERELVAAITRGGSTYYADSVKGRFTISRDNAKNTDYLQMKSLKPEDTAVYYCAASRYYNTVHNGGDYWGQGTQVTVSS | high polyreactivity
18 | QVQLVDSGGRLLQAGGSLRLSCAASGRTFYYYAKGWYRQAPGKERELVASITSDGDTNYADSVKGRFTISGDNAKNTGYLQMNSLKPEDTAVYYCAAEWQTQGYEYWGQGTQVTVSS | high polyreactivity
19 | QVQLVESGGGLVQAGGSLRLSCAASGRTIQTYVMGWYRQAPGKERELVASIRSGGRTKYADSVKGRFTISRDNAKNTVYLQMNSLKPEDTAVYYCAADRRAYYYSFDYWGQGTQVTVSS | low polyreactivity
20 | QVQLVESGGGLVQAGGSLRLSCAASGSIFRRYAMGWYRQAPGKEREFVAAITRSGGGTYYADSVKGRFTISRDNAKNTVYLQMNSLKPEDSAVYYCAKDVFVQRSRYPEGDYWGQGTQVTVSS | high polyreactivity
21 | QVQLVESGGGLVQAGGSLRLSCAASGFTFYTYAMGWYRQAPGKERELVAAINQRGGRTYYADSVKGRFTISRDNAKNTVYLQMNSLKPEDTAVYYCAKSPPPKTRYDYWGQGTQVTVSS | high polyreactivity
22 | QVQLVESGGGLVQAGGSLRLSCAASGRIFRAYAMGWYRQAPGKERELVAAITSGVSTNYADSVKGRFTISRDNAKNTVYLQMNSLKAEDTAVYYCAADIYVIYEYWGQGTQVTVSS | low polyreactivity
23 | QDQHVESGGGLVQEGGSLRLSCAASGSTFWPYAMGWSRQAPGKERELVARINSGGNTNYADSVKGLFTISRDNAKNTVYLQMNSLKPEDTAVYYCAVRSLYEPRVYYRCVVGDGNYWGQGTQVTVSS | low polyreactivity
24 | QVQLVESGGGLVQAGGSLRLSCAASGIIFKYYVMGWYRQAPGKERELVASIRWSGGITSYADSVKGRFTISRDNAKNTVYLQMNSLKPEDTAVYYCAVAHSRLRTAYTFSVQRYDYWGQGTQVTVSS | low polyreactivity
25 | QVQLVESGGGLVQAGGSLRLSCAASGRTFGGYAMGSYRQAPGKERELVAAISRSGGRTYYADSVKGRFTISRDNAKNTVYLQMNSLKPEDSAVYYWADRLYVGPTAMDYWGEGTQVTVSS | high polyreactivity
26 | QDQLVESGGGLVHAGGSLRLSCAASGSTFDRYALGWYRQAPVKERELVATITRSGSTNYADSVKGRFTISRDNAKNTVYLQMNSLKTEDTAVYYCAAYDRITRYDYWGQGTQVTVSS | high polyreactivity
27 | QVQLVESGGGLVQAGGSLRLSCAASGRTSVLYAMGWYRQAPGKEREFVAAITWNSGSTYYADSVKGRFTISRDNAKNTVYFQMNSLNPEDTAGYYCAADGLSYYVIRFDYWGQGTQVTVSS | low polyreactivity
28 | QVQLVESGGGLVQAGCSVRLSCAASGSFFVLNSMGWYRQAPGKERELVAAIDESGGGTYYADSVKGRFTISRDNAKNTVYLQMNSLKPEDTAVYYCAADTLAPRAYDYWGQGTQVTVSS | low polyreactivity
29 | QVQLVESGGGLVQAGGSLRLSCAASGRTLRSNAMGWYRQAPGKERELVAAISSNGGSTYYADSVKGRFTISRDNAKNTVYLQMNSLKPEDTAVYYCAALSYYYSDRMDYWGQGTQVSVSS | low polyreactivity
30 | QVQLVESGGGLVQAGGSLRLICAASGIIFTGYTMGWYRPAPGKERELVAAITWRGGSTYYADSVKGRFTISRDNAKNTVYLQMNSLKPEDTAVYYCAAEGWYSWDDDYWGQGTQVTVSS | low polyreactivity
31 | QVHLVESGGGLVQAGGSLRLSCSASGSTFYRYAMGWYRQAPGKERELVAAINTGGSTNYADSVKGRFTISRDNAKNTVYLQMNSLKPEDTAVYYCAARFQYYRKYDYWGQGTQVTVSS | low polyreactivity
32 | QDQLVESGGGLVQAGGSLRLSCAASGFIIIGNAMGWYRQAPGKERELVAAISRRGGSTYYADSVKGRFTISRDHAKNTVYLQMNSLKPEDTALYYCNALTRRQKGGEGGGYWGQGTQVTVSS | high polyreactivity
